Measurements: US20240166755A1 (UNIVERSITY OF SOUTHERN CALIFORNIA, published 2024)

T1: FLAG-CD19-ECD-GGSG-NLuc-AcV5 (human)
T1 construct: the entry includes the signal peptide; also called CD19-GGSG-NLuc-AcV5; CD19-GGSG-NLuc fusion protein
T1 chain: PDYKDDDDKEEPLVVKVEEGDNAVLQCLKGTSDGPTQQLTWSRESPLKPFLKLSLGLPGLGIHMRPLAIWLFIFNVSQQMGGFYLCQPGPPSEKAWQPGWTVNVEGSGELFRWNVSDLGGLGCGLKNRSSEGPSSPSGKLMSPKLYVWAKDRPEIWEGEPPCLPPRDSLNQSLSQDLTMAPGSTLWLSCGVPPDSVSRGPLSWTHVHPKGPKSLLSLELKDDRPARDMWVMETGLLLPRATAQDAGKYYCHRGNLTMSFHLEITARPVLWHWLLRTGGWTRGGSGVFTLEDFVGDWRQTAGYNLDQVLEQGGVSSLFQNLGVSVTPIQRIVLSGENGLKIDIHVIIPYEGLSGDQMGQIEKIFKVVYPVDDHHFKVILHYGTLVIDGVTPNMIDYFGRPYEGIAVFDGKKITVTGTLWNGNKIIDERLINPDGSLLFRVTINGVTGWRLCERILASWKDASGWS

T2: MPL-ECD-GGSG-Nluc-AcV5 (human)
T2 construct: the entry includes the native signal peptide; also called MPL-GGSG-NLuc-AcV5; MPL-GGSG-NLuc AcV5
T2 chain: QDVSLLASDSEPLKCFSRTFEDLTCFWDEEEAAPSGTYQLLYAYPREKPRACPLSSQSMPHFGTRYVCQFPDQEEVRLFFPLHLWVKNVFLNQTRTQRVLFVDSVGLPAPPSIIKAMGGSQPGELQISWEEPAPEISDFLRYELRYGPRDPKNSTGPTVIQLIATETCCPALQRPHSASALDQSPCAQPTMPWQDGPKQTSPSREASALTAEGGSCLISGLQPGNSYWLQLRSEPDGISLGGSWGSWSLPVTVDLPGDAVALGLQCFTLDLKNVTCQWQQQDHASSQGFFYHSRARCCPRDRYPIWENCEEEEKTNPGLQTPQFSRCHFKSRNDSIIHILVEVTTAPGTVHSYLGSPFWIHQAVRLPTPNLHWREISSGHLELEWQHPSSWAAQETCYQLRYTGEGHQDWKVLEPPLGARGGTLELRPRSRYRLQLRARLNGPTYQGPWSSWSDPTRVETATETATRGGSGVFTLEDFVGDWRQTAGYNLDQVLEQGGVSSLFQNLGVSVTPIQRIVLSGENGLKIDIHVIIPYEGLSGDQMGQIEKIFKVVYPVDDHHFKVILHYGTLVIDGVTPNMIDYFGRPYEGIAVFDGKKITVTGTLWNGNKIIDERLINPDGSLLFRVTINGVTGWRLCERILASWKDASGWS

T3: human MPL (thrombopoietin receptor) (human, UniProt P40238 26-635)
T3 construct: whole, on cells; also called c-MPL; c-Mpl
T3 sequence (looked up): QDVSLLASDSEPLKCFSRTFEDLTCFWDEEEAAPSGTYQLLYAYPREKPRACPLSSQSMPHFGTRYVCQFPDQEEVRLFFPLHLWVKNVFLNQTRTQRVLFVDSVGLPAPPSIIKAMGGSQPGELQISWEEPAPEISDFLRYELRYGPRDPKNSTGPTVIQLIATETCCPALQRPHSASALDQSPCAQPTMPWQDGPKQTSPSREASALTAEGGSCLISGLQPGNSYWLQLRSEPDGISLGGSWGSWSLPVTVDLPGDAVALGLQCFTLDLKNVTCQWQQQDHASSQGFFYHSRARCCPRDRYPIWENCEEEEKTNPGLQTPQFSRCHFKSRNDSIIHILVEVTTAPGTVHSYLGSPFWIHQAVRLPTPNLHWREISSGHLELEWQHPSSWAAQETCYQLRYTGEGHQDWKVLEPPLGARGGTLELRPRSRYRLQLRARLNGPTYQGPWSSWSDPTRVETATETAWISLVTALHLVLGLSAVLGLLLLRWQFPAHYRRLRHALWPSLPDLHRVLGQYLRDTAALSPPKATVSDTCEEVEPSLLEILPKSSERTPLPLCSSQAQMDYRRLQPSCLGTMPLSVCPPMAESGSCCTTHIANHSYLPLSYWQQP

B1: CD8SP-161-(vL-vH)-Myc-CD28z-T2A-PAC(021715-Z07) (scFv)
chain: DDIQMTQSSSSFSVSLGDRVTITCMASEDIYIRLAWYQQKPGNAPRLLISAATSLETGVPSRFSGSGSGKDYTLSITSLQTEDVGTYYCQQYWSSPWTFGGGTKLEINGGGGSGGGGSGGGGSDVQLQESGPGLVKPSQSLSLTCTVTGYSITSDYTWNWIRQFPGNKLEWMGYITYSGSTSYNPSLKSRNSITRDTSKNQFFLQLNSVTTEDTATYYCARLGRRYTMDYWGQGTSVTVSSTREQKLISEEDLKIEVMYPPPYLDNEKSNGTIIHVKGKHLCPSPLFPGPSKPFWVLVVVGGVLACYSLLVTVAFIIFWVRSKRSRLLHSDYMNMTPRRPGPTRKHYQPYAPPRDFAAYRSRVKFSRSADAPAYQQGQNQLYNELNLGRREEYDVLDKRRGRDPEMGGKPRRKNPQEGLYNELQKDKMAEAYSEIGMKGERRRGKGHDGLYQGLSTATKDTYDALHMQALPPRSSGSGEGRGSLLTCGDVEENPG
notes: CAR on cells; entry = whole encoded polyprotein incl; CD8 signal peptide and T2A-PAC
B2: CD8SP-4C3-(vL-vH)-Myc-CD28z-T2A-Pac(031615-W05) (scFv)
chain: DIVMTQSPSSLTMSVGQKVTMSCKSSHSLLNSRNQKNYLAWFQQKPGQSPKLLVYFASTRESGVPDRFIGSGSGTDFTLTISNVQAEDLADYFCQQHYTTLPTFGGGTKLEIKGGGGSGGGGSGGGGSQIQLVQSGPDLKKPGETVKISCKASGYTFTNTGMNWVKQAPGKGLKWMGWINTYTGEPTYADDFKGRFTFSLETSASTAYLQINNLKNEDTATYFCTRWGYGSSLYYAMDYWGQGTSVTVSSTREQKLISEEDLKIEVMYPPPYLDNEKSNGTIIHVKGKHLCPSPLFPGPSKPFWVLVVVGGVLACYSLLVTVAFIIFWVRSKRSRLLHSDYMNMTPRRPGPTRKHYQPYAPPRDFAAYRSRVKFSRSADAPAYQQGQNQLYNELNLGRREEYDVLDKRRGRDPEMGGKPRRKNPQEGLYNELQKDKMAEAYSEIGMKGERRRGKGHDGLYQGLSTATKDTYDALHMQALPPRSSGSGEGRGSLLTCGDVEENPG
notes: also called control CAR 4C3
B3: CD8SP-175-(vL-vH)-Myc-CD28z-T2A-PAC(031615-Q04) (scFv)
chain: DQIVLTQSPAIMSASPGEKVTISCSASSSVSYMYWYQQKPGSSPKPWIYRTSNLASGVPARFSGSGSGTSYSLTISNMEAEDAAAYYCQQYHSYPTTFGGGTKLEVKGGGGSGGGGSGGGGSEVQLVESGGGLVQPKGSLKLSCAASGFSFNTYAMNWVRQAPGKGLEWIAHIRSKSNNFATYYADSVKDRFSISRDASENILFLQMNNLKTEDTAMYYCVRQGGDFPMDYWGQGTSVTVSSTREQKLISEEDLKIEVMYPPPYLDNEKSNGTIIHVKGKHLCPSPLFPGPSKPFWVLVVVGGVLACYSLLVTVAFIIFWVRSKRSRLLHSDYMNMTPRRPGPTRKHYQPYAPPRDFAAYRSRVKFSRSADAPAYQQGQNQLYNELNLGRREEYDVLDKRRGRDPEMGGKPRRKNPQEGLYNELQKDKMAEAYSEIGMKGERRRGKGHDGLYQGLSTATKDTYDALHMQALPPRSSGSGEGRGSLLTCGDVEENPG
notes: as for B1
B4: CD8SP-KSHV-4C3-(vL-vH)-Myc-BBz-T2A-PAC(042315-N01) (scFv)
chain: DIVMTQSPSSLTMSVGQKVTMSCKSSHSLLNSRNQKNYLAWFQQKPGQSPKLLVYFASTRESGVPDRFIGSGSGTDFTLTISNVQAEDLADYFCQQHYTTLPTFGGGTKLEIKGGGGSGGGGSGGGGSQIQLVQSGPDLKKPGETVKISCKASGYTFTNTGMNWVKQAPGKGLKWMGWINTYTGEPTYADDFKGRFTFSLETSASTAYLQINNLKNEDTATYFCTRWGYGSSLYYAMDYWGQGTSVTVSSTREQKLISEEDLAKPTTTPAPRPPTPAPTIASQPLSLRPEACRPAAGGAVHTRGLDFACDIYIWAPLAGTCGVLLLSLVITLYCKRGRKKLLYIFKQPFMRPVQTTQEEDGCSCRFPEEEEGGCELRVKFSRSADAPAYQQGQNQLYNELNLGRREEYDVLDKRRGRDPEMGGKPRRKNPQEGLYNELQKDKMAEAYSEIGMKGERRRGKGHDGLYQGLSTATKDTYDALHMQALPPRSSGSGEGRGSLLTCGDVEENPG
notes: also called control CAR 4C3
B5: CD8SP-AB317-(vL-vH)-Myc-CD28z-T2A-PAC(031615-T04) (scFv)
chain: DIVLTQSPASLAVSLGQSVTISCRASESVEYYGTSLMQWYQQKPGQPPKLLIYGASNVESGVPARFSGSGSGTDFSLNIHPVEEDDIAMYFCQQSRKVPWTFGGGTKLEIKGGGGSGGGGSGGGGSEVKLVESGGGLVKPGGSRKLSCAASGFTFSSYTMSWVRQTPAKRLEWVATISSGSSTIYYADTVKGRFTISRDNAKNTLFLQMTSLRSEDTAMYYCARRWFLDCWGQGTTLTVSSTREQKLISEEDLKIEVMYPPPYLDNEKSNGTIIHVKGKHLCPSPLFPGPSKPFWVLVVVGGVLACYSLLVTVAFIIFWVRSKRSRLLHSDYMNMTPRRPGPTRKHYQPYAPPRDFAAYRSRVKFSRSADAPAYQQGQNQLYNELNLGRREEYDVLDKRRGRDPEMGGKPRRKNPQEGLYNELQKDKMAEAYSEIGMKGERRRGKGHDGLYQGLSTATKDTYDALHMQALPPRSSGSGEGRGSLLTCGDVEENPG
notes: as for B1
B6: CD8SP-12E10-(vL-vH)-Myc-CD28z-T2A-PAC(031615-S03) (scFv)
chain: DQVQLQQSGPGLVKPSETLSLTCTVSGDSISSYYWSWIRQPPGKGLEWIGYIYYSGSTNYNPSLKSRVTISVDTSKSQFSLKLSSVTAADTAVYYCARGRYFDVWGRGTMVTSSGGGGSGGGGSGGGGSSSYVLTQPPSVSGSPGQSITISCTGTSSDVGGYNYVSWYQQHPGKAPKLMIYEGSKRPSGVSNRFSGSKSGNTASLTISGLQAEDEADYYCSSYTTRSTRVFGGGTKLTVLGAAATREQKLISEEDLKIEVMYPPPYLDNEKSNGTIIHVKGKHLCPSPLFPGPSKPFWVLVVVGGVLACYSLLVTVAFIIFWVRSKRSRLLHSDYMNMTPRRPGPTRKHYQPYAPPRDFAAYRSRVKFSRSADAPAYQQGQNQLYNELNLGRREEYDVLDKRRGRDPEMGGKPRRKNPQEGLYNELQKDKMAEAYSEIGMKGERRRGKGHDGLYQGLSTATKDTYDALHMQALPPRSSGSGEGRGSLLTCGDVEENPG
notes: as for B1
B7: CD8SP-161-(vL-vH)-GGSG-NLuc-AcV5 (scFv)
scFv: DDIQMTQSSSSFSVSLGDRVTITCMASEDIYIRLAWYQQKPGNAPRLLISAATSLETGVPSRFSGSGSGKDYTLSITSLQTEDVGTYYCQQYWSSPWTFGGGTKLEINGGGGSGGGGSGGGGSDVQLQESGPGLVKPSQSLSLTCTVTGYSITSDYTWNWIRQFPGNKLEWMGYITYSGSTSYNPSLKSRNSITRDTSKNQFFLQLNSVTTEDTATYYCARLGRRYTMDYWGQGTSVTVSSTRGGSGVFTLEDFVGDWRQTAGYNLDQVLEQGGVSSLFQNLGVSVTPIQRIVLSGENGLKIDIHVIIPYEGLSGDQMGQIEKIFKVVYPVDDHHFKVILHYGTLVIDGVTPNMIDYFGRPYEGIAVFDGKKITVTGTLWNGNKIIDERLINPDGSLLFRVTINGVTGWRLCERILASWKDASGWS
notes: the entry includes the CD8 signal peptide

What was measured:
[1] = molecular target: T1, FLAG-CD19-ECD-GGSG-NLuc-AcV5; experiment: NLuc assay: CAR-T cells incubated with CD19-GGSG-NLuc-AcV5 supernatant
[2] = molecular target: T2, MPL-ECD-GGSG-Nluc-AcV5; experiment: NLuc assay: CAR-T cells incubated with MPL-GGSG-NLuc-AcV5 supernatant
[3] = molecular target: T1, FLAG-CD19-ECD-GGSG-NLuc-AcV5; experiment: NLuc assay: CAR on Jurkat-NFAT-Luc cells incubated with FLAG-CD19-ECD-GGSG-NLuc-AcV5 supernatant
[4] = molecular target: T3, human MPL (thrombopoietin receptor); experiment: NLuc luminescence of scFv-NLuc fusion supernatant bound to washed cells

| Binder | binding result [1] | also measured |
| --- | --- | --- |
| B1 | no binding |  |
| B2 |  | binding result [2]: no binding |
| B3 | no binding |  |
| B4 |  | binding result [3]: no binding |
| B5 | no binding |  |
| B6 | no binding |  |
| B7 |  | binding result [4]: binds |
